Reference: patent US20250136687A1 (SHANDONG SIMCERE BIOPHARMACEUTICAL, published 2025)
Read-outs that look alike come from different tables or passages of the source.

Legend:
[1] = biological target: T1, recombinant human CD3ε-ECD His protein (human, UniProt P07766 23-126); experiment: SPR (Biacore), antibody captured on Protein A chip
T1 construct: extracellular domain; also called human CD3ε-His; CD3ε antigen protein; not shown: His tag

[2] = biological target: T2, cynomolgus monkey CD3 on the surface of expanded monkey T cells (cynomolgus monkey, UniProt Q95LI5 22-198; Q95LI8 22-171; Q95LI7 23-181); experiment: FACS, expanded monkey T cells
T2 construct: whole, on cells; Endogenous CD3 within the TCR-CD3 complex on T cells expanded from cynomolgus monkey PBMC
Protocol: (§1) The binding of the chimeric antibodies to CD3 on the cell surface was analyzed by detecting the binding of the antibodies to Jurkat cells and human T cells. Suspension cells Jurkat cells were scale-up cultured in T-75 cell culture flasks to the logarithmic growth phase, the supernatant of the medium was discarded by centrifugation, and the cell pellet was washed 2 times with PBS for later use. The expanded human T cells were washed 2 times with PBS for later use. After counting the cells in the previous step, the cell pellet was resuspended with [PBS+2% (w/w) BSA] blocking solution to 4×10⁶ cells/ml, and added to a 96-well FACS reaction plate at 50 μl/well, and then the chimeric antibody to be tested was added at 50 μl/well, and incubated at 4° C. for 1 h. The cells were centrifuged and washed 3 times with a PBS buffer. […] The cells were centrifuged and washed 5 times with PBS, and FACS (FACS Canto™, purchased from BD Company) was used for detection and result analysis. Data analysis was performed by software (CellQuest) to obtain the mean fluorescence […] (MFI) of the cells. And then software (GraphPad Prism8) was used for analysis, data fitting, and EC50 value calculation. The same method was used to simultaneously detect the binding of the chimeric antibodies to endogenous CD3 negative cells MOLT4 cells.
FACS detection and data analysis were performed on the cryopreserved monkey T cells of Example 2.4 according to the method in Example 5.1.

[3] = biological target: T2, cynomolgus monkey CD3 on the surface of …; experiment: FACS, expanded monkey T cells; remark: listed apart in the source
Protocol: as §1, with “MOLT4 cells. […]” for “MOLT4 cells.”

T1 sequence (P07766 23-126): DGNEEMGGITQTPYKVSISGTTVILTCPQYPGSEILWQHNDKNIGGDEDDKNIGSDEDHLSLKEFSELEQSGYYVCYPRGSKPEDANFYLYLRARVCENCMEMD
T2 sequence (Q95LI5 22-198, chain 1 of 3): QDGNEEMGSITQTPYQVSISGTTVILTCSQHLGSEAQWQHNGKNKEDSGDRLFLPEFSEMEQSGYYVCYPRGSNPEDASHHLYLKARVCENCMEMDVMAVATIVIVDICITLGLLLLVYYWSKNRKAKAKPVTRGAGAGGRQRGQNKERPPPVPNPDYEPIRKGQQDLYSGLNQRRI
T2 sequence (Q95LI8 22-171, chain 2 of 3): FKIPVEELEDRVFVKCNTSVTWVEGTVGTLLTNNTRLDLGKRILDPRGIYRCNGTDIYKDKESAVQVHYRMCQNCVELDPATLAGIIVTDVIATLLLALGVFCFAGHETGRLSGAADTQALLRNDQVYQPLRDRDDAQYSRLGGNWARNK
T2 sequence (Q95LI7 23-181, chain 3 of 3): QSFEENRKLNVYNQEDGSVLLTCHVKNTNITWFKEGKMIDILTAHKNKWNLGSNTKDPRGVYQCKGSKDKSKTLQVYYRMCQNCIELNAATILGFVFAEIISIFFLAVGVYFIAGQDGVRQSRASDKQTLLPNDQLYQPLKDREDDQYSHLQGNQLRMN

Kd [1]: 203 pM
koff [1]: 0.000321 s⁻¹
kon [1]: 1.58e+06 M⁻¹ s⁻¹
EC50 [2]: 280 pM
MFI_Max [2]: 66000 MFI
EC50 [3]: 530 pM
B1: 40G5c-hIgG1 (antibody, V domains shown)
VH: EVQLVQSGAEVKKPGASVKVSCKASGYTFTNYYIHWVRQAPGQGLEWIGWIYPGDGNTKYNEKFKGRATLTADTSTSTAYLELSSLRSEDTAVYYCARDSYSNYYFDYWGQGTLVTVSS
VL: DIVMTQSPDSLAVSLGERATINCKSSQSLLNSRTRKNYLAWYQQKPGQPPKLLIYWASTRESGVPDRFSGSGSGTDFTLTISSLQAEDVAVYYCTQSFILRTFGQGTKVEIKR
